In patent US8343911B2, “Methods of inhibiting and treating bacterial biofilms by metal chelators” (University of Iowa Research Foundation, priority 2002, dated 2013):

B1: conalbumin (protein, UniProt P02789 20-705, looked up)
Ovotransferrin: APPKSVIRWCTISSPEEKKCNNLRDLTQQERISLTCVQKATYLDCIKAIANNEADAISLDGGQAFEAGLAPYKLKPIAAEVYEHTEGSTTSYYAVAVVKKGTEFTVNDLQGKTSCHTGLGRSAGWNIPIGTLLHRGAIEWEGIESGSVEQAVAKFFSASCVPGATIEQKLCRQCKGDPKTKCARNAPYSGYSGAFHCLKDGKGDVAFVKHTTVNENAPDQKDEYELLCLDGSRQPVDNYKTCNWARVAAHAVVARDDNKVEDIWSFLSKAQSDFGVDTKSDFHLFGPPGKKDPVLKDLLFKDSAIMLKRVPSLMDSQLYLGFEYYSAIQSMRKDQLTPSPRENRIQWCAVGKDEKSKCDRWSVVSNGDVECTVVDETKDCIIKIMKGEADAVALDGGLVYTAGVCGLVPVMAERYDDESQCSKTDERPASYFAVAVARKDSNVNWNNLKGKKSCHTAVGRTAGWVIPMGLIHNRTGTCNFDEYFSEGCAPGSPPNSRLCQLCQGSGGIPPEKCVASSHEKYFGYTGALRCLVEKGDVAFIQHSTVEENTGGKNKADWAKNLQMDDFELLCTDGRRANVMDYRECNLAEVPTHAVVVRPEKANKIRDLLERQEKRFGVNGSEKSKFMMFESQNKDLLFKDLTKCLFKVREGTTYKEFLGDKFYTVISSLKTCNPSDILQMCSFLEGK
notes: a lactoferrin-like chicken egg host defense protein; iron chelating protein, tested Fe-unsaturated and Fe-saturated
B2: lactoferrin (protein, UniProt P02788 20-710, looked up)
Lactotransferrin: GRRRSVQWCAVSQPEATKCFQWQRNMRKVRGPPVSCIKRDSPIQCIQAIAENRADAVTLDGGFIYEAGLAPYKLRPVAAEVYGTERQPRTHYYAVAVVKKGGSFQLNELQGLKSCHTGLRRTAGWNVPIGTLRPFLNWTGPPEPIEAAVARFFSASCVPGADKGQFPNLCRLCAGTGENKCAFSSQEPYFSYSGAFKCLRDGAGDVAFIRESTVFEDLSDEAERDEYELLCPDNTRKPVDKFKDCHLARVPSHAVVARSVNGKEDAIWNLLRQAQEKFGKDKSPKFQLFGSPSGQKDLLFKDSAIGFSRVPPRIDSGLYLGSGYFTAIQNLRKSEEEVAARRARVVWCAVGEQELRKCNQWSGLSEGSVTCSSASTTEDCIALVLKGEADAMSLDGGYVYTAGKCGLVPVLAENYKSQQSSDPDPNCVDRPVEGYLAVAVVRRSDTSLTWNSVKGKKSCHTAVDRTAGWNIPMGLLFNQTGSCKFDEYFSQSCAPGSDPRSNLCALCIGDEQGENKCVPNSNERYYGYTGAFRCLAENAGDVAFVKDVTVLQNTDGNNNEAWAKDLKLADFALLCLDGKRKPVTEARSCHLAMAPNHAVVSRMDKVERLKQVLLHQQAKFGRNGSDCPDKFCLFQSETKNLLFNDNTECLARLHGKTTYEKYLGPQYVAGITNLKKCSTSPLLEACEFLRK
notes: known iron chelating protein (Sigma Chemical Co.), proteinaceous metal chelator
B3: lactoferrin (protein, UniProt P02788 20-710, looked up)
Lactotransferrin: GRRRSVQWCAVSQPEATKCFQWQRNMRKVRGPPVSCIKRDSPIQCIQAIAENRADAVTLDGGFIYEAGLAPYKLRPVAAEVYGTERQPRTHYYAVAVVKKGGSFQLNELQGLKSCHTGLRRTAGWNVPIGTLRPFLNWTGPPEPIEAAVARFFSASCVPGADKGQFPNLCRLCAGTGENKCAFSSQEPYFSYSGAFKCLRDGAGDVAFIRESTVFEDLSDEAERDEYELLCPDNTRKPVDKFKDCHLARVPSHAVVARSVNGKEDAIWNLLRQAQEKFGKDKSPKFQLFGSPSGQKDLLFKDSAIGFSRVPPRIDSGLYLGSGYFTAIQNLRKSEEEVAARRARVVWCAVGEQELRKCNQWSGLSEGSVTCSSASTTEDCIALVLKGEADAMSLDGGYVYTAGKCGLVPVLAENYKSQQSSDPDPNCVDRPVEGYLAVAVVRRSDTSLTWNSVKGKKSCHTAVDRTAGWNIPMGLLFNQTGSCKFDEYFSQSCAPGSDPRSNLCALCIGDEQGENKCVPNSNERYYGYTGAFRCLAENAGDVAFVKDVTVLQNTDGNNNEAWAKDLKLADFALLCLDGKRKPVTEARSCHLAMAPNHAVVSRMDKVERLKQVLLHQQAKFGRNGSDCPDKFCLFQSETKNLLFNDNTECLARLHGKTTYEKYLGPQYVAGITNLKKCSTSPLLEACEFLRK
modifications: iron-saturated
notes: lactoferrin in the iron-saturated state

What was measured:
Format in all cases: cell-based
[1] = test system: wild-type P. aeruginosa PAO1; assay: Biofilm formation in continuous culture flow cells (confocal microscopy); details: for effect on biofilm formation, iron-saturated protein / effect on biofilm development / formation: 20 μg/ml, flow cells; for effect on biofilm formation, iron-saturated protein: Fe-saturated protein; for effect on biofilm development / formation: Fe-unsaturated protein, up to day 7
Method: (§1) For studies of biofilm formation, wild-type P. aeruginosa PAO1 and the surface motility mutant were grown in flow cells similar to those described previously; the size of the flow channel was 5×35×1 mm. An overnight culture diluted to 10^7 cells per ml in fresh biofilm medium was used as the inoculum and flow was arrested for 45 min. Flow of biofilm medium with and without 20 μg/ml of Fe-unsaturated or Fe-saturated lactoferrin or conalbumin (Sigma Chemical Co.) was then initiated at a rate of 170 μl/min. Images were obtained using a Biorad (Hercules, Calif.) scanning confocal microscope.

P. aeruginosa biofilms = assay: Antimicrobial susceptibility of biofilms grown in rotating disk reactor (viable cell counts); details: Fe-unsaturated conalbumin during 48 h biofilm growth
Method: P. aeruginosa biofilms for susceptibility tests were grown in a rotating disk reactor. Fe-unsaturated conalbumin (Sigma Chemical Co.) was added to standard biofilm medium at indicated concentrations for the duration of biofilm growth. Discs and attached bacteria were then washed 3 times in distilled water, and treated for 4 h in 1 ml of H2O2 (Fisher Scientific) or tobramycin (Eli Lilly, Indianapolis, Ind.) at indicated concentrations. The treated discs were washed 3 times, and bacteria were removed and dispersed in 2 ml sterile PBS by homogenization (Brinkman Homogenizer, model 10/35). Viable cell numbers were enumerated by plate counting.

P. aeruginosa [2] = assay: Bacterial movement and behaviors (squatters, ramblers, flyers) in flow cells; details: in the presence of lactoferrin; 40 parental cells, three generations; FIG. 3c,d
Method: (§2) Bacterial movement was assessed by using time-lapse images acquired at 1 min intervals. Motion of bacterial cells was traced visually by following individual cells. VOXblast software (VayTek, Inc, Fairfield, Iowa) was used to obtain the X-Y coordinates of bacterial cells.
(§3) Bacterial behaviors were classified as follows. Squatters remained within a 15 μm circle drawn around the point of parental cell division until the time of its cell division. Ramblers remained attached to the growth surface, but moved outside the circle. Flyers detached and were carried away by media flow. Dividing times of attached bacteria were measured by counting the number of frames between cell divisions; 60 bacterial divisions were observed and the dividing times were averaged.

P. aeruginosa [3] = assay: Dividing times of attached bacteria in flow cells (time-lapse microscopy)
Method: as §1, §2, §3

[4] = test system: P. aeruginosa strain PAO1; assay: Growth of free swimming P. aeruginosa in biofilm medium containing lactoferrin (plate counting)
Method: (§4) P. aeruginosa strain PAO1 containing the GFP plasmid pMRP9-1 was used for most studies. Where indicated, an isogenic surface motility mutant (a PA01 deletion mutant from J. Kato (Department of Fermentation Technology, Hiroshima University, Hiroshima, Japan.) containing pMRP9-1 was used. Biofilm medium consisted of 1% Trypticase Soy Broth (Difco, Detroit, Mich.). In the growth experiments, approximately 10^3 bacteria from an overnight culture were added to 5 ml of biofilm medium containing the indicated concentrations of lactoferrin (Sigma Chemical Co., St Louis, Mo.). Cultures were incubated in acid-washed tubes at 37° C. with shaking. Colony-forming units were determined by plate counting. […] P. aeruginosa with pMRP9-1 was also grown in lactoferrin-containing effluent medium from flow cells. After one day of bacterial growth, effluent was collected on ice, filter sterilized, and growth was assessed as above.

[5] = test system: P. aeruginosa surface motility mutant (PA01 deletion mutant); assay: Biofilm formation of surface motility mutant in flow cells; details: in the presence of lactoferrin, FIG. 4e,f
Method: as §4

Molecule | effect on biofilm formation, iron-saturated protein [1] | effect on biofilm development / formation [1] | effect of growth in conalbumin on biofilm resistance to H2O2 (P. aeruginosa biofilms; then H2O2 4 h) | effect of growth in conalbumin on biofilm resistance to tobramycin (P. aeruginosa biofilms; then tobramycin 4 h) | proportion of bacteria as squatters, ramblers, flyers (P. aeruginosa [2]) | effect on biofilm development / formation ([1]; listed as Lactoferrin) | effect on structure of mature biofilms ([1]; 5 day-old biofilms exposed to lactoferrin-containing medium for 48 h) | increase of dividing time of attached cells (P. aeruginosa [3]; 20 μg/ml lactoferrin vs. without) [%] | effect on growth of attached cells (P. aeruginosa [3]; concentration of lactoferrin that prevents biofilm formation) | dividing time of attached cells (P. aeruginosa [3]; with 20 μg/ml lactoferrin, average of 60 divisions) [min] | effect on growth rate of free swimming P. aeruginosa PAO1 ([4]; 20 μg/ml lactoferrin (sub-inhibitory), FIG. 1) | concentration of lactoferrin that inhibited bacterial growth ([4]; biofilm medium, 37° C. with shaking, varied for different lots) [µg/mL] | number of doublings in lactoferrin-containing effluent (conditioned) medium from flow cells ([4]; in 22 h, spent lactoferrin-treated medium) [times] | biofilm formation by surface motility mutant [5]
B1 | not when iron-saturated | prevented biofilm formation in the iron-unsaturated state | decreased resistance to both agents in a dose-dependent manner | decreased resistance to both agents in a dose-dependent manner |  |  |  |  |  |  |  |  |  | 
B2 |  | differentiated biofilm formation was completely blocked |  |  | a significantly larger proportion of cells exhibited rambling behavior and fewer were squatters | disrupted this pattern of development | failed to alter their structure | 27 | only slightly reduced the growth of attached cells | 127 | did not affect the growth rate | ≥ 30 | 6 | formed microcolonies and irregularly shaped biofilms in both the absence and presence of lactoferrin
B3 | did not prevent P. aeruginosa biofilm formation |  |  |  |  |  |  |  |  |  |  |  |  | 
